Our source for the EC50 of Gαq-stimulated PIP2 hydrolysis ([3H]-IP3 release from liposomes), Ki and Kd values is publication PMC3594540.

For one test, the target named is PLCβ3-Δ892 (human) (UniProt Q01970).
In the next test the target is Gαq D296A P298D (murine) (UniProt P21279). Description: flow cytometry protein interaction assay. Background: In flow cytometry, cells or beads pass a laser one at a time.
Another test addresses Gαq K311A (murine) (UniProt P21279). Description: flow cytometry protein interaction assay.
A further test deals with Gαq-ΔN (murine) (UniProt P21279). Nature of the test: flow cytometry protein interaction assay.
The target of test [1] is murine Gαq (residues 7–359), biotinylated for bead binding (murine) (UniProt P21279). Nature of the test: flow cytometry protein interaction assay.
In a further test the target is PLCβ3-Δ892 T652E (human) (UniProt Q01970).

Chain of murine Gαq (residues 7–359), biotinylated for bead binding (murine) (P21279 7-359): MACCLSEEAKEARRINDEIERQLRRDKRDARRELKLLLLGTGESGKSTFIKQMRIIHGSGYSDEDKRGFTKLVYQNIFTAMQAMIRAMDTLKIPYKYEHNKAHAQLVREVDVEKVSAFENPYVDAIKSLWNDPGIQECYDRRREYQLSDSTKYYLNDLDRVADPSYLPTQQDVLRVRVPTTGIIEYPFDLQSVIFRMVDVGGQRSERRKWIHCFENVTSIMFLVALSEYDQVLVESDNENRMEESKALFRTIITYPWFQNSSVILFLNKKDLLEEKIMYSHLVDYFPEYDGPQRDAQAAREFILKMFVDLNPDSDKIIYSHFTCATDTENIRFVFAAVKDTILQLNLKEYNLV
Chain of Gαq-ΔN (murine) (P21279 37-359, stated change not applied): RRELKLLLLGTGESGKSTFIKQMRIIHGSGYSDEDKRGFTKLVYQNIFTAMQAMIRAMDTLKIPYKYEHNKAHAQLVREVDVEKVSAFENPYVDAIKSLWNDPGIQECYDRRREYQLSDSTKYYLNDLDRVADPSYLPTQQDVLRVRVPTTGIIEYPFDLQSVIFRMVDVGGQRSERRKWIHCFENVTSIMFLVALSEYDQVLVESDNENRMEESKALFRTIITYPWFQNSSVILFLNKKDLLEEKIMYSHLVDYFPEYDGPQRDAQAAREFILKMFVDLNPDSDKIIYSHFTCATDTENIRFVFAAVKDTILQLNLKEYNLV
Chain of Gαq K311A (murine) (P21279 7-359 K311A): as the sequence (P21279 7-359) above, with K305A counted along it
Chain of murine Gαq (residues 7–359), biotinylated for bead binding (P21279 7-359): as the sequence (P21279 7-359) above
Chain of Gαq D296A P298D (murine) (P21279 7-359 D296A/P298D): as the sequence (P21279 7-359) above, with D290A, P292D counted along it
Chain of Gαq-ΔN (P21279 37-359, stated change not applied): as the sequence (P21279 37-359, stated change not applied) above

Turning to “Gαq-ΔN (from UniProt P21279 37-359) (domain or fragment)”, the EC50 of Gαq-stimulated PIP2 hydrolysis ([3H]-IP3 release from liposomes) with PLCβ3-Δ892 (human) was determined as 59 nM.

As usually defined, the Ki is a dissociation constant, usually derived from enzyme kinetics or from competition with a known ligand. Read a low Ki as tighter binding. Turning to “PLCβ3 L876A (from UniProt Q01970 10-1234) (enzyme)”, the Ki was determined as 12 nM with Gαq D296A P298D (murine), 16 nM in the test with Gαq K311A (murine), 24 nM with Gαq-ΔN (murine) and 20 nM in test [1]. In the test with PLCβ3-Δ892 (human), “Gαq C9S C10S (from UniProt P21279 7-359) (natural protein)” returned an EC50 of Gαq-stimulated PIP2 hydrolysis ([3H]-IP3 release from liposomes) of 150 nM. Take “PLCβ3 T652E (from UniProt Q01970) (enzyme)”: the Ki in test [1] is 160 nM. For the substance “PLCβ3-Δ892 (from UniProt Q01970 10-892) (domain or fragment)”, the Ki with Gαq D296A P298D (murine) was 420 nM; in the test with Gαq K311A (murine) it was 380 nM; with Gαq-ΔN (murine), 490 nM; in test [1], 490 nM. Turning to “PLCβ3-Δ882-937 L876A (from UniProt Q01970 10-1234) (enzyme)”, the Ki in test [1] is 12 nM. A word on the Kd: it is a measure of binding affinity in units of concentration. Read a low Kd as a tighter complex. For the substance “AF488-labeled PLCβ3-Δ892 R872A L876A L879A (from UniProt Q01970 10-892) (domain or fragment)”, the dissociation constant Kd in test [1] is 40 nM.

Substance “human PLCβ3 (residues 10–1234) (from UniProt Q01970 10-1234) (enzyme)” had a Ki with Gαq K311A (murine) of 260 nM. Consider “PLCβ3-Δ882-937 (from UniProt Q01970 10-1234) (enzyme)”, for which the inhibitory constant (Ki) in test [1] is 230 nM. On the same count and under the same terms, under “PLCβ3-Δ892 T652E (from UniProt Q01970 10-892) (domain or fragment)” stands 250 nM. With “PLCβ3 I1129E V1133E I1136E triple mutant (from UniProt Q01970) (enzyme)”, the Ki with Gαq-ΔN (murine) was 78 nM; in test [1], 93 nM. For “Gαq K311A (from UniProt P21279 7-359) (natural protein)”, the EC50 of Gαq-stimulated PIP2 hydrolysis ([3H]-IP3 release from liposomes) with PLCβ3-Δ892 (human) amounted to 150 nM. With “Gαq D296A P298D (from UniProt P21279 7-359) (natural protein)”, the EC50 of Gαq-stimulated PIP2 hydrolysis ([3H]-IP3 release from liposomes) with PLCβ3-Δ892 (human) stood at 540 nM. For the substance “PLCβ3 L876A EEE (from UniProt Q01970) (enzyme)”, the values for the Ki (with Gαq-ΔN (murine); in test [1]) were 42 nM and 26 nM, respectively. As for “murine Gαq (residues 7–359), biotinylated for bead binding (from UniProt P21279 7-359) (natural protein)”, the EC50 of Gαq-stimulated PIP2 hydrolysis ([3H]-IP3 release from liposomes) with PLCβ3-Δ892 (human) worked out at 59 nM; with PLCβ3-Δ892 T652E (human), 250 nM.
